Here are results for one molecule from article PMC11099176.

Test [1] addresses SPP1 tails carrying gp16.1 and lacking gp17 (bacteriophage SPP1) (UniProt O48449).
Test [2] has as its target SPP1 tails lacking gp16.1 and gp17 (bacteriophage SPP1) (UniProt O48449).

B1: gp17 of bacteriophage SPP1, purified (natural protein)
chain: MTWKLASRALQKATVENLESYQPLMEMVNQVTESPGKDDPYPYVVIGDQSSTPFETKSSFGENITMDFHVWGGTTRAEAQDISSRVLEALTYKPLMFEGFTFVAKKLVLAQVITDTDGVTKHGIIKVRFTINNN
The molecule B1 displayed an infectious particles formed in vitro in SPP1gp17− extract (tails with endogenous gp16.1) against 0.003–20 µM purified gp17; gp17 concentration at the plateau in test [1] of 6 µM. In test [2], this molecule displayed an infectious particles formed in vitro in SPP1gp16.1−-gp17− extract with 20 µM purified gp16.1 added, against purified gp17; gp17 concentration at the plateau of 0.2 µM.
